The values that follow come from patent US20030021776, “Regulation of angiogenesis with zinc finger proteins” (Sangamo BioSciences, Inc., published 2003).

Series [1] has as its target VOP 30A-4 (VZ+42/+530, mVZ+509) (synthetic). Kind of series: EMSA; upper bound; 10 mM Tris, 100 mM KCl, 1 mM MgCl2, 0.01 mM ZnCl2. Particulars: tags: MBP fusion (pMal-c2), SP1 backbone. As for the experimental part:
(§1) A three-fold dilution series of each protein was tested for binding to its DNA target (SEQ ID NOS:207, 144, 240, and 141, respectively), with the highest concentration in lane 10 and the lowest concentration in lane 2. Lane 1 contains probe alone.
(§2) Binding studies. Binding studies were performed essentially as described (Liu, et al. (2001) J. Biol. Chem. 276: 11,323-11,334), except that the buffer was modified to the following final composition: 10 mM Tris, 100 mM KCl, 1 mM MgCl₂, 10 mM DTT, 0.01 mM ZnCl₂, 10% glycerol, 200 μg/ml bovine serum albumin, 0.02% IGEPAL.
(§3) Genes for our ZFPs were assembled (see experimental procedures) and each protein was expressed and purified essentially as described (Liu et. al., 2001, supra; and Zhang et. al., supra). We then characterized the DNA-binding affinity of each ZFP using a gel shift assay. Procedures for these studies were essentially identical to those described previously (Liu et. al., 2001, supra; and Zhang et. al., supra) except for the use of a modified binding buffer.
On the technique in general: Mobility shift assays separate free from complexed probe on a gel.

The target of a further series is T1, HUM 19A (synthetic).
T1 chain: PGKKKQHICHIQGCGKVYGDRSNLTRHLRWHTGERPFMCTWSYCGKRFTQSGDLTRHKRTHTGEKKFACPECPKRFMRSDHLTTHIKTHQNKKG
Kind of series: EMSA. Conditions: tags: MBP fusion (pMal-c2), SP1 backbone.

In series [2] the target is VOP 35A-10 (VZ+892) (synthetic). In words: EMSA; 170 mM KCl, 1.7 mM MgCl2, Zn. Particulars: tags: MBP fusion (pMal-c2), SP1 backbone. The method, then: (§4) Binding studies were performed essentially as described (Zhang et al., supra; WO 00/41566; and WO 00/42219) except that the binding reactions contained 10 pM of labeled target site and the buffer composition was as follows: 17 mM Tris, 170 mM KCl, 1.7 mM MgCl2, 3.5 mM DTT, 0.01-0.033 mM ZnCl2, 15% glycerol, 300 μg/ml bovine serum albumin, 0.03% IGEPAL. In addition, ZFP concentrations for these studies were determined directly by measuring the DNA-binding activity of each ZFP preparation using conditions under which binding is essentially stoichiometric (ZFP and target site concentrations of >100 nM).
Chain of VOP 35A-10 (VZ+892) (synthetic) (chain, as listed by the source): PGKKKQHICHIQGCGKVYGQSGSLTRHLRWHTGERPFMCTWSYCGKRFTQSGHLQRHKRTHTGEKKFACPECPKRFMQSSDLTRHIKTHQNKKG

For series [3], the target named is T2, VOP 32B-7 (VZ+434b, mVZ+426) (synthetic).
T2 chain: T1 chain with Q50T, D53H, T55V, T83S, T84R
Kind of series: EMSA. Conditions: tags: MBP fusion (pMal-c2), SP1 backbone.

Another series deals with T3, VOP 32A-6 (VZ+434a) (synthetic).
T3 chain: T1 chain with Q50M, G52H, D53H, T55S, T83S, T84R
Kind of series: EMSA. Conditions: tags: MBP fusion (pMal-c2), SP1 backbone.

In series [4] the target is T4, VOP 32B-VP16 (VZ+434b-VP16) (synthetic).
T4 chain: T1 chain with Q50T, D53H, T55V, T83S, T84R
Kind of series: cell_activity; endogenous VEGF-A in HEK 293.

A further series deals with MTS 5A (synthetic, UniProt P08047). Kind of series: EMSA. Conditions: tags: MBP fusion (pMal-c2), SP1 backbone.
Chain of MTS 5A (P08047 other isoform, or with tags, fused parts or gaps): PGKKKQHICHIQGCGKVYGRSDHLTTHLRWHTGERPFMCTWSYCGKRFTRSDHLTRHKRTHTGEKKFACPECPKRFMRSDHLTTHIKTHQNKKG
The next series addresses T5, VEGF 1 (VZ-8) (synthetic, UniProt P08047).
T5 chain: T1 chain with D20T, R21T, T25R, Q50R, G52S, D53N, T55Q, T83S, T84R
In words: EMSA; 170 mM KCl, 1.7 mM MgCl2, Zn. Particulars: tags: MBP fusion (pMal-c2), SP1 backbone. The method, then: as §4

A further series addresses VOP 28A-2 (synthetic). In words: EMSA. Conditions: tags: MBP fusion (pMal-c2), SP1 backbone.
A further series addresses T6, VOP 29A-3 (synthetic).
T6 chain: T1 chain with D20R, R21S, S22D, N23H, R26T, G52S, H81N, T84R
In words: EMSA. Conditions: tags: MBP fusion (pMal-c2), SP1 backbone.

Series [5] has as its target T7, SP1 zinc finger domain (UniProt P08047 SEQ:1-94). Kind of series: EMSA; 100 mM KCl, 1 mM MgCl2, Zn. As for the experimental part:
as §2, §3

Series [6] has as its target T7, SP1 zinc finger domain. Kind of series: EMSA; 170 mM KCl, 1.7 mM MgCl2, Zn. As for the experimental part:
as §4

Another series deals with VEGF 1B (synthetic, UniProt P08047). Kind of series: EMSA. Conditions: tags: MBP fusion (pMal-c2), SP1 backbone.
Chain of VEGF 1B (P08047 other isoform, or with tags, fused parts or gaps): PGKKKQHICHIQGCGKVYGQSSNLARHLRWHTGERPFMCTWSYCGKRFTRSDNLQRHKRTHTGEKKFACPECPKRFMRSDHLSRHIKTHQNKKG
A further series concerns the target T8, PDF 5A (VZ+590) (synthetic).
T8 chain: T1 chain with N23S, Q50R, G52D, D53H, T55S, R78Q, D80G, H81S, T84R
Kind of series: EMSA; 170 mM KCl, 1.7 mM MgCl2, Zn. Particulars: tags: MBP fusion (pMal-c2), SP1 backbone. The method, then:
as §4

For series [7], the target named is T2, VOP 32B-7 (VZ+434b, mVZ+426). Kind of series: EMSA; upper bound; 10 mM Tris, 100 mM KCl, 1 mM MgCl2, 0.01 mM ZnCl2. Conditions: tags: MBP fusion (pMal-c2), SP1 backbone. The method, then:
as §1, §2, §3

Series [8] has the same target. Kind of series: EMSA; 170 mM KCl, 1.7 mM MgCl2, Zn. Particulars: tags: MBP fusion (pMal-c2), SP1 backbone. As for the experimental part:
as §4

For series [9], the target named is VOP 35A-10 (VZ+892) (synthetic). In words: EMSA; Table 6 gives 0.24 nM for same helices (VZ+892). Conditions: tags: MBP fusion (pMal-c2), SP1 backbone.
The target in a further series is T9, VZ-950 (synthetic).
T9 chain: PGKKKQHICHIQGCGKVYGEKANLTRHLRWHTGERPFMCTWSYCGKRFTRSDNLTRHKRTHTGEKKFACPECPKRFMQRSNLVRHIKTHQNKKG
In words: EMSA; 170 mM KCl, 1.7 mM MgCl2, Zn. Conditions: tags: MBP fusion (pMal-c2), SP1 backbone. As for the experimental part:
as §4

The target in a further series is T10, BVO 13A (synthetic).
T10 chain: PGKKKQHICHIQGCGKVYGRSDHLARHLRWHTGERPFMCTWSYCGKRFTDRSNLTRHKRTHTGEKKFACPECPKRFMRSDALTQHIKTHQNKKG
In words: EMSA. Particulars: tags: MBP fusion (pMal-c2), SP1 backbone.

The target in the next series is T11, MX1E (synthetic).
T11 chain: T10 chain with T83S, Q84A
Kind of series: EMSA. Conditions: tags: MBP fusion (pMal-c2), SP1 backbone.

Series [10] addresses VOP 30A-4 (VZ+42/+530, mVZ+509) (synthetic). In words: EMSA. Conditions: tags: MBP fusion (pMal-c2), SP1 backbone.
In the next series the target is USX 3A (synthetic). In words: EMSA. Conditions: tags: MBP fusion (pMal-c2), SP1 backbone.
The target in another series is ZEN-7A 1 (VZ-573) (synthetic, UniProt P08047). Kind of series: EMSA; 170 mM KCl, 1.7 mM MgCl2, Zn. Conditions: tags: MBP fusion (pMal-c2), SP1 backbone. The method, then: as §4
Chain of ZEN-7A 1 (VZ-573) (P08047 other isoform, or with tags, fused parts or gaps): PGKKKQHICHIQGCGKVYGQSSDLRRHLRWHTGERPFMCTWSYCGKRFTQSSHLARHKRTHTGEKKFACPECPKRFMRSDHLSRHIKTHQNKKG
The target in a further series is VG 8A (VZ-475) (synthetic). In words: EMSA; 170 mM KCl, 1.7 mM MgCl2, Zn. Conditions: tags: MBP fusion (pMal-c2), SP1 backbone. The method, then:
as §4

A further series deals with T12, HUM 17A (VZ+472) (synthetic).
T12 chain: T10 chain with H23N, D50R, R51S, S52D, N53H, T55S, A81N
In words: EMSA; 17 mM Tris, 170 mM KCl, 1.7 mM MgCl2, Zn. Particulars: tags: MBP fusion (pMal-c2), SP1 backbone. As for the experimental part:
as §4

Numbering of substitutions follows the chain as printed. Bounds are passed on as bounds.

Chain of VOP 30A-4 (VZ+42/+530, mVZ+509) (synthetic) (chain, as listed by the source): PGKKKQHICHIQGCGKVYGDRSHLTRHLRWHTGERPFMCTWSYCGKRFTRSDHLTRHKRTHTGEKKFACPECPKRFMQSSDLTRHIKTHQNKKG
T7 sequence (P08047 620-713): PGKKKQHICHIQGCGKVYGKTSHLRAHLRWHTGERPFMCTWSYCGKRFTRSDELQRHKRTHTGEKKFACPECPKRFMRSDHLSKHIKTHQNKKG
Chain of VG 8A (VZ-475) (synthetic) (chain, as listed by the source): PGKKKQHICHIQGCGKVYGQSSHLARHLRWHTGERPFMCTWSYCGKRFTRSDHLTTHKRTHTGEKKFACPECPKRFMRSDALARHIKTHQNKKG
Chain of VOP 28A-2 (synthetic) (chain, as listed by the source): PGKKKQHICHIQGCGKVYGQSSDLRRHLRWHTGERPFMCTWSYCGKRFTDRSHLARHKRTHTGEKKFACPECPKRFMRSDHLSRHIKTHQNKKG

B1: mVZ+509 target (dsDNA)
DNA 1: GCTGGGGGCG
DNA 2: CGCCCCCAGC
By Kd is commonly meant the free concentration of one partner at which half of the binding sites on the other are occupied at equilibrium, for simple one-to-one binding. Read a low Kd as a tighter complex. Take B1: the Kd in series [1] is below 0.01 nM.

B2: HUM 19A target (dsDNA)
DNA 1: TGGGCAGAC
DNA 2: GTCTGCCCA
In the series with HUM 19A, B2 yielded a Kd of 0.02 nM. That is a picomolar value.

B3: VZ+892 target (dsDNA)
DNA 1: GCTGGAGCAC
DNA 2: GTGCTCCAGC
B3 returned a Kd with VOP 35A-10 (VZ+892) [2] of 0.24 nM.

B4: VOP 32A/32B target (dsDNA)
DNA 1: GGGGGTGAC
DNA 2: GTCACCCCC
For B4, the Kd (in series [3]; with VOP 32A-6 (VZ+434a)) was below 0.02 nM throughout. This molecule also returned an activity in [4] of 8 fold.

B5: MTS 5A target (dsDNA)
DNA 1: TGGGGGTGG
DNA 2: CCACCCCCA
As for B5, the Kd with MTS 5A came to 0.07 nM.

B6: VZ-8 target (dsDNA)
DNA 1: GGGGAGGATC
DNA 2: GATCCTCCCC
As for B6, binding with VEGF 1 (VZ-8) was characterised by a dissociation constant (Kd) of 2.83 nM.

B7: VOP 28A-2 target (dsDNA)
DNA 1: GGGGGCGCT
DNA 2: AGCGCCCCC
Molecule B7 showed a Kd with VOP 28A-2 below 0.02 nM.

B8: VOP 29A-3 target (dsDNA)
DNA 1: GAGGCTTGG
DNA 2: CCAAGCCTC
B8 gave a Kd with VOP 29A-3 below 0.02 nM.

B9: SP1 target (dsDNA)
DNA 1: GGGGCGGGGG
DNA 2: CCCCCGCCCC
Regarding B9, the values for the Kd with SP1 zinc finger domain [5] and with SP1 zinc finger domain [6] were 0.053 nM and 0.25 nM, respectively.

B10: VEGF 1B target (dsDNA)
DNA 1: GGGGAGGAT
DNA 2: ATCCTCCCC
For the molecule B10, in the series with VEGF 1B, binding was characterised by a dissociation constant (Kd) of 2 nM. In other words, the single-digit nanomolar range.

B11: VZ+590 target (dsDNA)
DNA 1: GCAGGGGCCG
DNA 2: CGGCCCCTGC
B11 had a dissociation constant (Kd) with PDF 5A (VZ+590) of 0.23 nM.

B12: VZ+434 / mVZ+426 target (dsDNA)
DNA 1: GGGGGTGACC
DNA 2: GGTCACCCCC
For B12, the Kd in series [7] is below 0.01 nM; in series [8] it was below 0.02 nM.

B13: VOP 35A-10 target (dsDNA)
DNA 1: GCTGGAGCA
DNA 2: TGCTCCAGC
With B13, the Kd with VOP 35A-10 (VZ+892) [9] is below 0.02 nM.

B14: VZ-950 target (dsDNA)
DNA 1: GAAGAGGACC
DNA 2: GGTCCTCTTC
B14 showed a Kd with VZ-950 of 0.18 nM. That is a sub-nanomolar value.

B15: BVO 13A / MX1E target (dsDNA)
DNA 1: ATGGACGGG
DNA 2: CCCGTCCAT
For the molecule B15, the Kd in the series with BVO 13A was below 0.02 nM; with MX1E, 3.4 nM.

B16: VOP 30A target (dsDNA)
DNA 1: GCTGGGGGC
DNA 2: GCCCCCAGC
B16: in series [10], the Kd is below 0.02 nM.

B17: USX 3A target (dsDNA)
DNA 1: GCCGGGGAG
DNA 2: CTCCCCGGC
As to B17, the Kd with USX 3A came to 0.06 nM. That is a picomolar value.

B18: VZ-573 target (dsDNA)
DNA 1: GGGGGCGCTC
DNA 2: GAGCGCCCCC
As to B18, in the series with ZEN-7A 1 (VZ-573), the affinity, expressed as Kd, was 0.63 nM.

B19: VZ-475 target (dsDNA)
DNA 1: GTGTGGGGTT
DNA 2: AACCCCACAC
In turn, B19 had a Kd with VG 8A (VZ-475) of 0.35 nM.

B20: VZ+472 target (dsDNA)
DNA 1: AAGGGGGAGG
DNA 2: CCTCCCCCTT
As to B20, in the series with HUM 17A (VZ+472), binding was characterised by a dissociation constant (Kd) of 0.006 nM. This counts as picomolar.
